Measurements published in PMC4794604 (Molecules and Cells, 2016).

How the values were obtained:
Experiment in all cases: ELISA
[1] = target: Fc-fused ECD of PDGFRβ (Homo sapiens (assumed), UniProt P09619)
[2] = target: HGFR/c-Met ECD-Fc (Homo sapiens (assumed), UniProt P08581)
[3] = target: Fc-fused ECD of HER4 (Homo sapiens (assumed), UniProt Q15303)
[4] = target: Fc-fused ECD of IGF-IR (Homo sapiens (assumed), UniProt P08069)
[5] = target: Fc-fused ECD of HER3 (Homo sapiens (assumed), UniProt P21860)
[6] = target: Fc-fused ECD of EGFR (Homo sapiens (assumed), UniProt P00533)
[7] = target: Fc-fused ECD of FGFR3 (IIIc) (Homo sapiens (assumed), UniProt P22607)
[8] = target: Fc-fused ECD of VEGFR2 (Homo sapiens (assumed), UniProt P35968)

Measured: binding result

Fc-fused ECD of FGFR3 (IIIc), sequence (P22607 23-375): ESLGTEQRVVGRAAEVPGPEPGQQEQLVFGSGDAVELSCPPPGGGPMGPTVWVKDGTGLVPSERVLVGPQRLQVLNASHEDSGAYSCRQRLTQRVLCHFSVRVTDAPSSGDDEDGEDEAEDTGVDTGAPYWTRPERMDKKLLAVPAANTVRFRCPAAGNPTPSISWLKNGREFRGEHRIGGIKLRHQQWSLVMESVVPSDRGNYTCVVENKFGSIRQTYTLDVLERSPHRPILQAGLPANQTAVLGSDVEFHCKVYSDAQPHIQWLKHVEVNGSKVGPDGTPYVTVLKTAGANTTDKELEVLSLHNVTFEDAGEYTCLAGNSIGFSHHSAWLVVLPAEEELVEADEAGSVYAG
Fc-fused ECD of PDGFRβ, sequence (P09619 33-532): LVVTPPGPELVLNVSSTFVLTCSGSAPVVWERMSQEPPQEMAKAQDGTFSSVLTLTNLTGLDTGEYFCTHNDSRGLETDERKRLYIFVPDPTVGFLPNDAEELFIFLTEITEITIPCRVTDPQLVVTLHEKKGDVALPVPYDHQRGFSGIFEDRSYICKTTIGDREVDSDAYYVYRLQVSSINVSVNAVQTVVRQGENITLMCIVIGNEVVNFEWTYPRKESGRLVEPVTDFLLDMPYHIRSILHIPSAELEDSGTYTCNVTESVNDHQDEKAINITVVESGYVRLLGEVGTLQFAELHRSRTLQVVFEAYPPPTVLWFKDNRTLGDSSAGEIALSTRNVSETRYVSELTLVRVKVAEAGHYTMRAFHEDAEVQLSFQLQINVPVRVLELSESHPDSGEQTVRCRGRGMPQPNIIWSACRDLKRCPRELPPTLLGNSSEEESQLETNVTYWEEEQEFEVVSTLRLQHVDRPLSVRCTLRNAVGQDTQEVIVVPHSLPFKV
Fc-fused ECD of HER3, sequence (P21860 20-643): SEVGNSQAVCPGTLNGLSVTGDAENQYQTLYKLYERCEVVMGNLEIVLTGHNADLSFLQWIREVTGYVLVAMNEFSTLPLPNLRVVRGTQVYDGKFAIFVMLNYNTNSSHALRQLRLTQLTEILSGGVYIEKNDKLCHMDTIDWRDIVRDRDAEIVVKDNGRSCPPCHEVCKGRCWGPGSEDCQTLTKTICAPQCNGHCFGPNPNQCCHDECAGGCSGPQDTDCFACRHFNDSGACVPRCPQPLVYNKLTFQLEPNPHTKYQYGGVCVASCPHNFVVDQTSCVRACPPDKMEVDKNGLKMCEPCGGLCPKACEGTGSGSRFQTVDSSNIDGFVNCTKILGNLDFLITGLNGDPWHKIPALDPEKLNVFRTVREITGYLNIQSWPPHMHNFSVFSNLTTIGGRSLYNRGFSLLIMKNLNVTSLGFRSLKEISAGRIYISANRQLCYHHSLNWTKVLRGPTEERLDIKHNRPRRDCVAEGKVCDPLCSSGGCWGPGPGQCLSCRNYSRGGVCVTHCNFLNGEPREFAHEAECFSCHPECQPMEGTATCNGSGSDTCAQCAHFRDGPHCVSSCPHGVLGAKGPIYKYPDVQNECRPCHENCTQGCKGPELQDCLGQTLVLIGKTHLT
Fc-fused ECD of VEGFR2, sequence (P35968 20-764): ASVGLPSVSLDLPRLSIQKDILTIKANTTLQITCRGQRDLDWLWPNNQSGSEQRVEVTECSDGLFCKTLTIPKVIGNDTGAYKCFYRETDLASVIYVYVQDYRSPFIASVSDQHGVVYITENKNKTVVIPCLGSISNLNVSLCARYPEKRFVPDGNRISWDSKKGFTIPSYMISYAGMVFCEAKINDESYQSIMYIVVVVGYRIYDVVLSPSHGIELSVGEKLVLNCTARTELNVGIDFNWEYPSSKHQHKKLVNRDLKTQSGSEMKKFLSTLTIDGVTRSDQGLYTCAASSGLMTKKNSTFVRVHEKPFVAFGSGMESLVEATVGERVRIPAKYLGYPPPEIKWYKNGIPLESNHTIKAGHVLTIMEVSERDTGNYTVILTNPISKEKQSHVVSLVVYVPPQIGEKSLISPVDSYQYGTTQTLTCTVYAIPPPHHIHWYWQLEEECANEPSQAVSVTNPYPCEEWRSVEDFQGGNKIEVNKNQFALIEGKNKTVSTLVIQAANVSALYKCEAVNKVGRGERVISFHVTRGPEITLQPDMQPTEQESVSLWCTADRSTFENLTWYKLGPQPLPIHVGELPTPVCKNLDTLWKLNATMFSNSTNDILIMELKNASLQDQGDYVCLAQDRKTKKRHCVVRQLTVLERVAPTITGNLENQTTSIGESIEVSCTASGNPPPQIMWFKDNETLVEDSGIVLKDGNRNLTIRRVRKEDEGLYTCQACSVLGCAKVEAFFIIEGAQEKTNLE
Fc-fused ECD of HER4, sequence (Q15303 26-651): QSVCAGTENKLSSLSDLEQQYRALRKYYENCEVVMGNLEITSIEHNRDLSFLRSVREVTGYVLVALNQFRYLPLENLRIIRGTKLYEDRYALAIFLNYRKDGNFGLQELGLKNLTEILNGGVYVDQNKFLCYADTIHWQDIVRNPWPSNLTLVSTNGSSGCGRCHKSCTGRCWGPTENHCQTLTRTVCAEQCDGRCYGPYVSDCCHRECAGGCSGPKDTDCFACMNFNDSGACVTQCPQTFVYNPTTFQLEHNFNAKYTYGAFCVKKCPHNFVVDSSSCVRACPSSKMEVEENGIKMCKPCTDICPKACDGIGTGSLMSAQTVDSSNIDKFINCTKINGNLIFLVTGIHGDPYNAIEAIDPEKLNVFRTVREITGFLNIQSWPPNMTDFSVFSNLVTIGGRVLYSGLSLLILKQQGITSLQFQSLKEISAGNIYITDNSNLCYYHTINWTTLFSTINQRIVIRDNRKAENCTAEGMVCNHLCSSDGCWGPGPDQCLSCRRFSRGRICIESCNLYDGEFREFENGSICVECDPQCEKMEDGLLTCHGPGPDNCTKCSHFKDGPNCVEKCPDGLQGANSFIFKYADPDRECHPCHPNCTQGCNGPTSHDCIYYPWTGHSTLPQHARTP
Fc-fused ECD of IGF-IR, sequence (P08069 741-935): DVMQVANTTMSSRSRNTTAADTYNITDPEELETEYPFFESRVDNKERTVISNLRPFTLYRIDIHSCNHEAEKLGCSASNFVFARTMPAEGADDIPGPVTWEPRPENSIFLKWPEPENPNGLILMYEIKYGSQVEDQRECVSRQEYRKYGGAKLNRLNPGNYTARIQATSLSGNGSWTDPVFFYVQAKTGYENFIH
HGFR/c-Met ECD-Fc, sequence (P08581 25-932): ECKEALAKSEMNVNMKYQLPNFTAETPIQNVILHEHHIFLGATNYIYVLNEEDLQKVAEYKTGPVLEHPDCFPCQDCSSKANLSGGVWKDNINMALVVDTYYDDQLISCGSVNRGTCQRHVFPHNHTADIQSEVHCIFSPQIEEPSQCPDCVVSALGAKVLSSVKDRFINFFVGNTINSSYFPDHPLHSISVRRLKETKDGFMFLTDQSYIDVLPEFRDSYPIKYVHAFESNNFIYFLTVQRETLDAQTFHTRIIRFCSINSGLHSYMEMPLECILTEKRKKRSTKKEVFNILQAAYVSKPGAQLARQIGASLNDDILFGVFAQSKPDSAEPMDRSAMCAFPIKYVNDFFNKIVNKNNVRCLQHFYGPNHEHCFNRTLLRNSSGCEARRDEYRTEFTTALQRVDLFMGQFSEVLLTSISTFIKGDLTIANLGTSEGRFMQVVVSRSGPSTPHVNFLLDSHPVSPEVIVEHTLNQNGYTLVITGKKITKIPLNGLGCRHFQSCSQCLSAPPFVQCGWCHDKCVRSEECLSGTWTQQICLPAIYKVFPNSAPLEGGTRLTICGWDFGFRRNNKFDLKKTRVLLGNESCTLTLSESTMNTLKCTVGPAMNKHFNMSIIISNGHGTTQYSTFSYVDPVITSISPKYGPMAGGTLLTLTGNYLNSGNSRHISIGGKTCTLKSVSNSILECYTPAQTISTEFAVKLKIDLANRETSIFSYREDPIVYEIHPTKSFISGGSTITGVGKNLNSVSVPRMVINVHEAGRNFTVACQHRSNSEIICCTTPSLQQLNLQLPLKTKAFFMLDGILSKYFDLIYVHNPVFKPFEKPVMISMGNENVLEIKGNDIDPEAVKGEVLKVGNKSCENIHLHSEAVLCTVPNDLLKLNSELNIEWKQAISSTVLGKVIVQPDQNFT

B1: AH06, variant of hu4D5 from library LN02, IgG format (antibody, V domains shown)
VH: EVQLVESGGGLVQPGGSLRLSCAASGFNIKDTYIHWVRQAPGKGLEWVARIYPTNGYTRYADSVKGRFTISADTSKNTAYLQMNSLRAEDTAVYYCSRWGGWGFYAFALWGQGTLVTVSS
VL: not shown
no binding (tested: 30 nM): all assays above
